Reference: paper PMC8413894

Target: BACE1-GFP (UniProt P56817)
Assay: co-IP

UniProt P56817, sequence (P56817 46-501): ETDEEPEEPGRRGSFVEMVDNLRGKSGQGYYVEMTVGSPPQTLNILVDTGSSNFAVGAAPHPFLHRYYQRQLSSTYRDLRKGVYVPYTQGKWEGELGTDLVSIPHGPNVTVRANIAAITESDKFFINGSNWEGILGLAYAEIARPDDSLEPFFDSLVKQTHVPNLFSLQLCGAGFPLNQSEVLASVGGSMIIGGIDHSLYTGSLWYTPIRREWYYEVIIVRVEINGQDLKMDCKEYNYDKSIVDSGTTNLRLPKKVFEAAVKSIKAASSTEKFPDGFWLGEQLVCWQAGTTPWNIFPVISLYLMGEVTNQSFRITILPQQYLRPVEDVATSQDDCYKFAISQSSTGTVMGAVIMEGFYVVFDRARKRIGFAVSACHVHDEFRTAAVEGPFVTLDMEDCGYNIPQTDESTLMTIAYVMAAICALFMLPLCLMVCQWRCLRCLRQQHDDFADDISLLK

Bin1-KR (siRNA-resistant neuronal Bin1-MYC with the LOAD mutation K358R, rs138047593) (from UniProt O08539-1 1-588) (natural protein)
percent reduction of co-immunoprecipitated Bin1 against Bin1-WT: 65%
